Laboratory results from article PMC10786891, “Massively parallel profiling of RNA-targeting CRISPR-Cas13d”.

T1: EsCas13d, nuclease-dead (Eubacterium siraeum, UniProt B0MS50, R295A;H300A;R849A;H854A)
T1 sequence: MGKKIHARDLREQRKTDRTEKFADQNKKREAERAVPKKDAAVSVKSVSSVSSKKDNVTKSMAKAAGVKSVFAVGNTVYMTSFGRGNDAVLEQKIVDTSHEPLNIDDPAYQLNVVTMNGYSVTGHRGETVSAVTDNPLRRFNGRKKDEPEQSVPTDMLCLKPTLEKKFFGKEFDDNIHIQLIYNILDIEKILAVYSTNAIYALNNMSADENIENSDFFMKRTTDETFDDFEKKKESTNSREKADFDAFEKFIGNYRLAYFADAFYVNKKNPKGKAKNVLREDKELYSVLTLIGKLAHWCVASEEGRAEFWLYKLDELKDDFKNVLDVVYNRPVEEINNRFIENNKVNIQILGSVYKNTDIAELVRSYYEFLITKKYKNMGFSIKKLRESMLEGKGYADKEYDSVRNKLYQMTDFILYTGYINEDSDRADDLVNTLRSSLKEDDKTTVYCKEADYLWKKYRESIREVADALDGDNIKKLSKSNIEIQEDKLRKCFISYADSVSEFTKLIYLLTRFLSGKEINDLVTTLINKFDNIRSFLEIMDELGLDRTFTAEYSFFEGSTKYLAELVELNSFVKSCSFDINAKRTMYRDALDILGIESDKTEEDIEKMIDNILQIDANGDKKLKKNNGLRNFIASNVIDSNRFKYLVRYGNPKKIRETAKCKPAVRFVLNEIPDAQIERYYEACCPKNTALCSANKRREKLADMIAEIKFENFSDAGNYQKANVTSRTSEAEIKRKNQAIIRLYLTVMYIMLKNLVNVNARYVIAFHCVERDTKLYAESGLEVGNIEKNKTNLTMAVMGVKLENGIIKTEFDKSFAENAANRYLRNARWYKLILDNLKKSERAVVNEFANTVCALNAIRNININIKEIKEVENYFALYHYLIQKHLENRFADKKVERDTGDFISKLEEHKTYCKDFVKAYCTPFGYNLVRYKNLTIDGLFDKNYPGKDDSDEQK

B1: target 1 U10A,G13A (mixed)
RNA 1: CACCCGUGCAAAAAUGCAGGGGUCUAAAACUGAGCGGAUAACCUCUCUAUGG
RNA 2: GGGAAUGGAUCCACAUCUACGAAUUCGUACCAUAGAGAAGUAAUCCGCUCACCGAGAUCGGAAGAGCACACGU
B2: target 1 G12U,A18C (mixed)
RNA 1: CACCCGUGCAAAAAUGCAGGGGUCUAAAACUGAGCGGAUAACCUCUCUAUGG
RNA 2: GGGAAUGGAUCCACAUCUACGAAUUCGUACCAUCGAGAGUUUAUCCGCUCACCGAGAUCGGAAGAGCACACGU
B3: target 1 insU 3' of 18,insU 3' of 18 (mixed)
RNA 1: CACCCGUGCAAAAAUGCAGGGGUCUAAAACUGAGCGGAUAACCUCUCUAUGG
RNA 2: GGGAAUGGAUCCACAUCUACGAAUUCGUACCAUAUUGAGAGGUUAUCCGCUCACCGAGAUCGGAAGAGCACACGU
B4: target 1 insU 3' of 22,insG 3' of 6 (mixed)
RNA 1: CACCCGUGCAAAAAUGCAGGGGUCUAAAACUGAGCGGAUAACCUCUCUAUGG
RNA 2: GGGAAUGGAUCCACAUCUACGAAUUCGUACUCAUAGAGAGGUUAUCCGGCUCACCGAGAUCGGAAGAGCACACGU
B5: target 1 insC 3' of 20,insU 3' of 7 (mixed)
RNA 1: CACCCGUGCAAAAAUGCAGGGGUCUAAAACUGAGCGGAUAACCUCUCUAUGG
RNA 2: GGGAAUGGAUCCACAUCUACGAAUUCGUACCACUAGAGAGGUUAUCUCGCUCACCGAGAUCGGAAGAGCACACGU
B6: target 1 insG 3' of 10,insA 3' of 10 (mixed)
RNA 1: CACCCGUGCAAAAAUGCAGGGGUCUAAAACUGAGCGGAUAACCUCUCUAUGG
RNA 2: GGGAAUGGAUCCACAUCUACGAAUUCGUACCAUAGAGAGGUUGAAUCCGCUCACCGAGAUCGGAAGAGCACACGU
B7: target 1 insU 3' of 18,insA 3' of 10 (mixed)
RNA 1: CACCCGUGCAAAAAUGCAGGGGUCUAAAACUGAGCGGAUAACCUCUCUAUGG
RNA 2: GGGAAUGGAUCCACAUCUACGAAUUCGUACCAUAUGAGAGGUUAAUCCGCUCACCGAGAUCGGAAGAGCACACGU
B8: target 1 insC 3' of 18,insC 3' of 15 (mixed)
RNA 1: CACCCGUGCAAAAAUGCAGGGGUCUAAAACUGAGCGGAUAACCUCUCUAUGG
RNA 2: GGGAAUGGAUCCACAUCUACGAAUUCGUACCAUACGAGCAGGUUAUCCGCUCACCGAGAUCGGAAGAGCACACGU
B9: target 1 G13C,G15A (mixed)
RNA 1: CACCCGUGCAAAAAUGCAGGGGUCUAAAACUGAGCGGAUAACCUCUCUAUGG
RNA 2: GGGAAUGGAUCCACAUCUACGAAUUCGUACCAUAGAAACGUUAUCCGCUCACCGAGAUCGGAAGAGCACACGU
B10: target 1 C4A,U11G (mixed)
RNA 1: CACCCGUGCAAAAAUGCAGGGGUCUAAAACUGAGCGGAUAACCUCUCUAUGG
RNA 2: GGGAAUGGAUCCACAUCUACGAAUUCGUACCAUAGAGAGGGUAUCCGAUCACCGAGAUCGGAAGAGCACACGU
B11: target 1 insG 3' of 16,insC 3' of 16 (mixed)
RNA 1: CACCCGUGCAAAAAUGCAGGGGUCUAAAACUGAGCGGAUAACCUCUCUAUGG
RNA 2: GGGAAUGGAUCCACAUCUACGAAUUCGUACCAUAGAGCGAGGUUAUCCGCUCACCGAGAUCGGAAGAGCACACGU
B12: target 1 U3G,G15U (mixed)
RNA 1: CACCCGUGCAAAAAUGCAGGGGUCUAAAACUGAGCGGAUAACCUCUCUAUGG
RNA 2: GGGAAUGGAUCCACAUCUACGAAUUCGUACCAUAGAUAGGUUAUCCGCGCACCGAGAUCGGAAGAGCACACGU
B13: target 1 insA 3' of 15,insU 3' of 5 (mixed)
RNA 1: CACCCGUGCAAAAAUGCAGGGGUCUAAAACUGAGCGGAUAACCUCUCUAUGG
RNA 2: GGGAAUGGAUCCACAUCUACGAAUUCGUACCAUAGAGAAGGUUAUCCGUCUCACCGAGAUCGGAAGAGCACACGU
B14: target 1 insA 3' of 21,insA 3' of 4 (mixed)
RNA 1: CACCCGUGCAAAAAUGCAGGGGUCUAAAACUGAGCGGAUAACCUCUCUAUGG
RNA 2: GGGAAUGGAUCCACAUCUACGAAUUCGUACCAAUAGAGAGGUUAUCCGCAUCACCGAGAUCGGAAGAGCACACGU
B15: target 1 G12C,G13C (mixed)
RNA 1: CACCCGUGCAAAAAUGCAGGGGUCUAAAACUGAGCGGAUAACCUCUCUAUGG
RNA 2: GGGAAUGGAUCCACAUCUACGAAUUCGUACCAUAGAGACCUUAUCCGCUCACCGAGAUCGGAAGAGCACACGU
B16: target 1 C7U,U8A (mixed)
RNA 1: CACCCGUGCAAAAAUGCAGGGGUCUAAAACUGAGCGGAUAACCUCUCUAUGG
RNA 2: GGGAAUGGAUCCACAUCUACGAAUUCGUACCAUAGAGAGGUUAAUCGCUCACCGAGAUCGGAAGAGCACACGU
B17: target 1 C2G,U3G (mixed)
RNA 1: CACCCGUGCAAAAAUGCAGGGGUCUAAAACUGAGCGGAUAACCUCUCUAUGG
RNA 2: GGGAAUGGAUCCACAUCUACGAAUUCGUACCAUAGAGAGGUUAUCCGCGGACCGAGAUCGGAAGAGCACACGU
B18: target 1 C4U,C6U (mixed)
RNA 1: CACCCGUGCAAAAAUGCAGGGGUCUAAAACUGAGCGGAUAACCUCUCUAUGG
RNA 2: GGGAAUGGAUCCACAUCUACGAAUUCGUACCAUAGAGAGGUUAUCUGUUCACCGAGAUCGGAAGAGCACACGU
B19: target 1 U3A,C6A (mixed)
RNA 1: CACCCGUGCAAAAAUGCAGGGGUCUAAAACUGAGCGGAUAACCUCUCUAUGG
RNA 2: GGGAAUGGAUCCACAUCUACGAAUUCGUACCAUAGAGAGGUUAUCAGCACACCGAGAUCGGAAGAGCACACGU
B20: target 1 insA 3' of 5,insG 3' of 2 (mixed)
RNA 1: CACCCGUGCAAAAAUGCAGGGGUCUAAAACUGAGCGGAUAACCUCUCUAUGG
RNA 2: GGGAAUGGAUCCACAUCUACGAAUUCGUACCAUAGAGAGGUUAUCCGACUCGACCGAGAUCGGAAGAGCACACGU
B21: target 1 insC 3' of 22,insA 3' of 10 (mixed)
RNA 1: CACCCGUGCAAAAAUGCAGGGGUCUAAAACUGAGCGGAUAACCUCUCUAUGG
RNA 2: GGGAAUGGAUCCACAUCUACGAAUUCGUACCCAUAGAGAGGUUAAUCCGCUCACCGAGAUCGGAAGAGCACACGU
B22: target 1 insC 3' of 12,insG 3' of 9 (mixed)
RNA 1: CACCCGUGCAAAAAUGCAGGGGUCUAAAACUGAGCGGAUAACCUCUCUAUGG
RNA 2: GGGAAUGGAUCCACAUCUACGAAUUCGUACCAUAGAGAGGCUUAGUCCGCUCACCGAGAUCGGAAGAGCACACGU
B23: target 1 insC 3' of 19,insA 3' of 3 (mixed)
RNA 1: CACCCGUGCAAAAAUGCAGGGGUCUAAAACUGAGCGGAUAACCUCUCUAUGG
RNA 2: GGGAAUGGAUCCACAUCUACGAAUUCGUACCAUCAGAGAGGUUAUCCGCUACACCGAGAUCGGAAGAGCACACGU
B24: target 1 insA 3' of 19,insG 3' of 3 (mixed)
RNA 1: CACCCGUGCAAAAAUGCAGGGGUCUAAAACUGAGCGGAUAACCUCUCUAUGG
RNA 2: GGGAAUGGAUCCACAUCUACGAAUUCGUACCAUAAGAGAGGUUAUCCGCUGCACCGAGAUCGGAAGAGCACACGU
B25: target 1 insU 3' of 5 (mixed)
RNA 1: CACCCGUGCAAAAAUGCAGGGGUCUAAAACUGAGCGGAUAACCUCUCUAUGG
RNA 2: GGGAAUGGAUCCACAUCUACGAAUUCGUACCAUAGAGAGGUUAUCCGUCUCACCGAGAUCGGAAGAGCACACGU
B26: target 1 G12C,C21U (mixed)
RNA 1: CACCCGUGCAAAAAUGCAGGGGUCUAAAACUGAGCGGAUAACCUCUCUAUGG
RNA 2: GGGAAUGGAUCCACAUCUACGAAUUCGUACUAUAGAGAGCUUAUCCGCUCACCGAGAUCGGAAGAGCACACGU
B27: target 1 G12A,C21A (mixed)
RNA 1: CACCCGUGCAAAAAUGCAGGGGUCUAAAACUGAGCGGAUAACCUCUCUAUGG
RNA 2: GGGAAUGGAUCCACAUCUACGAAUUCGUACAAUAGAGAGAUUAUCCGCUCACCGAGAUCGGAAGAGCACACGU
B28: target 1 insA 3' of 22,insA 3' of 13 (mixed)
RNA 1: CACCCGUGCAAAAAUGCAGGGGUCUAAAACUGAGCGGAUAACCUCUCUAUGG
RNA 2: GGGAAUGGAUCCACAUCUACGAAUUCGUACACAUAGAGAGAGUUAUCCGCUCACCGAGAUCGGAAGAGCACACGU

Molecular target: T1, EsCas13d, nuclease-dead
Test: crRNA (strand 1, pre-loaded); Mg2+; 40 mM Tris-HCl pH 7.5, 150 mM NaCl, 6 mM MgCl2, 1 mM DTT, 0.1% Tween-20, 0.2 mg/ml BSA; 25 C; 10 min per concentration, then washed
Conditions: tags: His6-TwinStrep-SUMO cleaved; N-terminal SNAP kept (SNAP-Surface 488); label: 3' end held by stalled T7 RNA polymerase

Row | Binder | Kd [nM]
1 | B1 | 9.5 ± 1
2 | B2 | 40 ± 4
3 | B3 | 30.9 ± 2
4 | B4 | 34 ± 7
5 | B5 | 13.2 ± 1
6 | B6 | 10.7 ± 0.6
7 | B7 | 41.2 ± 3.1
8 | B8 | 56 ± 8
9 | B9 | 46 ± 9
10 | B10 | 8.4 ± 0.7
11 | B11 | 31.5 ± 1.8
12 | B12 | ~60
13 | B13 | 27.9 ± 2.9
14 | B14 | 10.2 ± 1.3
15 | B15 | 30 ± 6
16 | B16 | 12.9 ± 0.7
17 | B17 | 4.43 ± 0.34
18 | B18 | 28 ± 8
19 | B19 | 5.02 ± 0.21
20 | B20 | 8.3 ± 0.7
21 | B21 | 28.2 ± 3.4
22 | B22 | 24 ± 1.2
23 | B23 | 29.8 ± 2.1
24 | B24 | 13.2 ± 0.6
25 | B25 | 18.1 ± 2.5
26 | B26 | 6 ± 0.5
27 | B27 | 34.8 ± 2.2
28 | B28 | 6 ± 0.4
